Measurements as given in patent publication US20030165997, “Zinc finger domain libraries” (published 2003).

How the values were obtained:
Assay in all cases: cell_activity; HEK 293 luciferase
Details in all cases: tags: HA, NLS
ZFP 48 RDHT-RSHR-RDER1 = ZFP 48 RDHT-RSHR-RDER1 (Homo sapiens)
Experimental: (§1) The in vivo activity assay for a particular three-finger protein was carried out as follows. HEK 293 cells were transfected with four plasmids: 14 ng of a plasmid expressing the particular three-finger protein; 14 ng of the reporter plasmid described above; 70 ng of a plasmid that expresses GAL4-VP 16; and 1.4 ng of a plasmid that expresses Renillar luciferase. The GAL4-VP 16 activates transcription of the minimal synthetic promoter in the reporter so that the repression effected by a particular three-finger protein could be clearly detected and compared to other three-finger proteins. The plasmid expressing Renillar luciferase provides a control of transfection efficiency.
(§2) Lipofectamine (Gibco-BRL) was used for the transfection procedures. Cells were transfected at 30-50% confluency in wells of a 96 well plate. The cells were incubated for two days prior to harvesting for the luciferase assay. Then luciferase activities were measured using the Dual-Luciferase™ Reporter Assay System (Promega). The observed firefly luciferase activity was normalized using the observed level of Renilla luciferase. The extent of repression or “fold-repression” was calculated by dividing a value for normalized reporter expression in the absence of a zinc finger protein by a value for normalized reporter expression in the presence of the zinc finger protein.
(§3) A total of 153 three-finger chimeric proteins were constructed from both the “zinc finger protein-first” and the “target site-first” approaches. These proteins were tested using the transient cotransfection assay described in Example 68.

ZFP 46 HSNK-QSHT-RSNR = ZFP 46 HSNK-QSHT-RSNR (Homo sapiens)
Experimental: as §1, §2, §3

ZFP 60 QSNR3-QSSR1-QSNV2 = ZFP 60 QSNR3-QSSR1-QSNV2 (Homo sapiens)
Experimental: as §1, §2, §3

ZFP 55 QSNV2-QSHR2-QSNR3 = ZFP 55 QSNV2-QSHR2-QSNR3 (Homo sapiens)
Experimental: as §1, §2, §3

ZFP 42 RDHT-QSHR2-QSHT = ZFP 42 RDHT-QSHR2-QSHT (Homo sapiens)
Experimental: as §1, §2, §3

ZFP 62 RDER1-QSSR1-VSTR = ZFP 62 RDER1-QSSR1-VSTR (Homo sapiens)
Experimental: as §1, §2, §3

ZFP 47 RSHR-QSHR2-VSTR = ZFP 47 RSHR-QSHR2-VSTR (Homo sapiens)
Experimental: as §1, §2, §3

ZFP 50 RSHR-RDER1-QSNV2 = ZFP 50 RSHR-RDER1-QSNV2 (Homo sapiens)
Experimental: as §1, §2, §3

ZFP 49 RSHR-QSNV2-QSHT = ZFP 49 RSHR-QSNV2-QSHT (Homo sapiens)
Experimental: as §1, §2, §3

ZFP 51 VSNV-QSNV2-QSHT = ZFP 51 VSNV-QSNV2-QSHT (Homo sapiens)
Experimental: as §1, §2, §3

ZFP 64 VSSR-RSHR-ISNR = ZFP 64 VSSR-RSHR-ISNR (Homo sapiens)
Experimental: as §1, §2, §3

ZFP 35 VSSR-QSHT-RSHR = ZFP 35 VSSR-QSHT-RSHR (Homo sapiens)
Experimental: as §1, §2, §3

ZFP 52 QSHR2-QSHT-RSNR = ZFP 52 QSHR2-QSHT-RSNR (Homo sapiens)
Experimental: as §1, §2, §3

ZFP 57 QSHR2-CSNR1-QSHT = ZFP 57 QSHR2-CSNR1-QSHT (Homo sapiens)
Experimental: as §1, §2, §3

ZFP 39 VSTR-RSNR-QSHR2 = ZFP 39 VSTR-RSNR-QSHR2 (Homo sapiens)
Experimental: as §1, §2, §3

ZFP 45 HSNK-QSNV2-VSSR = ZFP 45 HSNK-QSNV2-VSSR (Homo sapiens)
Experimental: as §1, §2, §3

ZFP 65 RSNR-RDER1-RSHR = ZFP 65 RSNR-RDER1-RSHR (Homo sapiens)
Experimental: as §1, §2, §3

ZFP 36 RSNR-VSSR-RSNR = ZFP 36 RSNR-VSSR-RSNR (Homo sapiens)
Experimental: as §1, §2, §3

ZFP 58 VSNV-QSHR2-VSTR = ZFP 58 VSNV-QSHR2-VSTR (Homo sapiens)
Experimental: as §1, §2, §3

ZFP 41 QSNR3-RSNR-RSHR = ZFP 41 QSNR3-RSNR-RSHR (Homo sapiens)
Experimental: as §1, §2, §3

ZFP 43 QSSR1-QSNR3-QSHR2 = ZFP 43 QSSR1-QSNR3-QSHR2 (Homo sapiens)
Experimental: as §1, §2, §3

ZFP 56 RSNR-VSTR-RSHR = ZFP 56 RSNR-VSTR-RSHR (Homo sapiens)
Experimental: as §1, §2, §3

ZFP 53 QSHR2-RDHT-CSNR1 = ZFP 53 QSHR2-RDHT-CSNR1 (Homo sapiens)
Experimental: as §1, §2, §3

ZFP 53 QSHR2-RDHT-CSNR1 (Homo sapiens), sequence (chain, as listed by the source): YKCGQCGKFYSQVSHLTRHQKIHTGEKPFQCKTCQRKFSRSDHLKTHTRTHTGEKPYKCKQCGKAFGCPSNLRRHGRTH
ZFP 51 VSNV-QSNV2-QSHT (Homo sapiens), sequence (chain, as listed by the source): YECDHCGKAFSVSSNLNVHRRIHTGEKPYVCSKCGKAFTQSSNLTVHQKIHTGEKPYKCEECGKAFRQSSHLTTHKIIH
ZFP 36 RSNR-VSSR-RSNR (Homo sapiens), sequence (chain, as listed by the source): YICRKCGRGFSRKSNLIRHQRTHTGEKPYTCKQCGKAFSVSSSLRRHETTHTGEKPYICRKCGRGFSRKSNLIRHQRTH
ZFP 58 VSNV-QSHR2-VSTR (Homo sapiens), sequence (chain, as listed by the source): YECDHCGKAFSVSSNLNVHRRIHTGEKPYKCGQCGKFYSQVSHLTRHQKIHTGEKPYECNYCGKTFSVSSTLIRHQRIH
ZFP 42 RDHT-QSHR2-QSHT (Homo sapiens), sequence (chain, as listed by the source): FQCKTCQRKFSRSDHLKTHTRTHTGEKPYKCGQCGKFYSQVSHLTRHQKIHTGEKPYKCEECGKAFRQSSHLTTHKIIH
ZFP 60 QSNR3-QSSR1-QSNV2 (Homo sapiens), sequence (chain, as listed by the source): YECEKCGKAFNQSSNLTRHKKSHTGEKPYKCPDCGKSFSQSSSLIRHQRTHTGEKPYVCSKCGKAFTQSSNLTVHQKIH
ZFP 55 QSNV2-QSHR2-QSNR3 (Homo sapiens), sequence (chain, as listed by the source): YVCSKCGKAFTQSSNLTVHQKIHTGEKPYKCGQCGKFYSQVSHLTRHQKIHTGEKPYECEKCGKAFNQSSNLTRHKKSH
ZFP 41 QSNR3-RSNR-RSHR (Homo sapiens), sequence (chain, as listed by the source): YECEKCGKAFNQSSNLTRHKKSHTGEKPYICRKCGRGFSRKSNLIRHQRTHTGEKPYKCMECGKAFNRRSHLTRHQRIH
ZFP 43 QSSR1-QSNR3-QSHR2 (Homo sapiens), sequence (chain, as listed by the source): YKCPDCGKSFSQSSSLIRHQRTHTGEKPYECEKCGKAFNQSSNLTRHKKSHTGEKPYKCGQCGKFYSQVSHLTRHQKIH
ZFP 62 RDER1-QSSR1-VSTR (Homo sapiens), sequence (chain, as listed by the source): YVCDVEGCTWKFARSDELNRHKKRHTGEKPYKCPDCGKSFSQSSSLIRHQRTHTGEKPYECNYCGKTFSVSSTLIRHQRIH
ZFP 64 VSSR-RSHR-ISNR (Homo sapiens), sequence (chain, as listed by the source): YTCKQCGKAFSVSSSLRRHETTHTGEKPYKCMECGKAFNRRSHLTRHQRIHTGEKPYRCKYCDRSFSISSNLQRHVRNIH
ZFP 39 VSTR-RSNR-QSHR2 (Homo sapiens), sequence (chain, as listed by the source): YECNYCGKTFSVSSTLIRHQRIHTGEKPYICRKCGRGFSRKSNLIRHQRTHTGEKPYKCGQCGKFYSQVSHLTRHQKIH
ZFP 46 HSNK-QSHT-RSNR (Homo sapiens), sequence (chain, as listed by the source): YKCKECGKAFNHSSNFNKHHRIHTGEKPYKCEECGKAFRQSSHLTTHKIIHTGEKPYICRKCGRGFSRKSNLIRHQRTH
ZFP 35 VSSR-QSHT-RSHR (Homo sapiens), sequence (chain, as listed by the source): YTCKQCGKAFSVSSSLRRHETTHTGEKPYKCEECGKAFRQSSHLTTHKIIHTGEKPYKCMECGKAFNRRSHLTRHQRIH
ZFP 50 RSHR-RDER1-QSNV2 (Homo sapiens), sequence (chain, as listed by the source): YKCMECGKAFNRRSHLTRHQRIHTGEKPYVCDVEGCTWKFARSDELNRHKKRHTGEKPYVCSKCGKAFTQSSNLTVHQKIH
ZFP 45 HSNK-QSNV2-VSSR (Homo sapiens), sequence (chain, as listed by the source): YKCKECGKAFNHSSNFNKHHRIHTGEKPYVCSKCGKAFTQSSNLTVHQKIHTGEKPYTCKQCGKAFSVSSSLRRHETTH
ZFP 56 RSNR-VSTR-RSHR (Homo sapiens), sequence (chain, as listed by the source): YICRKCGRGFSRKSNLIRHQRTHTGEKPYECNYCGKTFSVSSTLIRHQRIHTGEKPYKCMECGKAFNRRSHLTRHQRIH
ZFP 52 QSHR2-QSHT-RSNR (Homo sapiens), sequence (chain, as listed by the source): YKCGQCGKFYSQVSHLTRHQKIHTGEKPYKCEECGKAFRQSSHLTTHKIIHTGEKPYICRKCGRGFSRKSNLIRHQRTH
ZFP 49 RSHR-QSNV2-QSHT (Homo sapiens), sequence (chain, as listed by the source): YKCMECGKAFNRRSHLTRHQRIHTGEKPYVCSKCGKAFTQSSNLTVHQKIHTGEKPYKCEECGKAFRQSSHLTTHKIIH
ZFP 57 QSHR2-CSNR1-QSHT (Homo sapiens), sequence (chain, as listed by the source): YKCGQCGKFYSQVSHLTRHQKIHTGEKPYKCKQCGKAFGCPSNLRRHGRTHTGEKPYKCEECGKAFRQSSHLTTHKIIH
ZFP 65 RSNR-RDER1-RSHR (Homo sapiens), sequence (chain, as listed by the source): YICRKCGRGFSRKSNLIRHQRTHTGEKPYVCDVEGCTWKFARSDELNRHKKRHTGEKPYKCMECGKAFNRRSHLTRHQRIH
ZFP 48 RDHT-RSHR-RDER1 (Homo sapiens), sequence (chain, as listed by the source): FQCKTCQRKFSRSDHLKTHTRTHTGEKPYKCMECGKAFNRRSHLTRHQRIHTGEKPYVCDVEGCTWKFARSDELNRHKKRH
ZFP 47 RSHR-QSHR2-VSTR (Homo sapiens), sequence (chain, as listed by the source): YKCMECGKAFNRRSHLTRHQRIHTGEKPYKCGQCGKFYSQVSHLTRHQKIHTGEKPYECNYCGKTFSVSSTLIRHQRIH

B1: target 48 (dsDNA)
DNA 1: GCGGGGAGGG
DNA 2: CCCTCCCCGC
B1 showed an activity (ZFP 48 RDHT-RSHR-RDER1) of 1.6 fold repression.

B2: target 46 (dsDNA)
DNA 1: GAGAGAGAC
DNA 2: GTCTCTCTC
Work on B2 yielded an activity (ZFP 46 HSNK-QSHT-RSNR) of 1.7 fold repression.

B3: target 60 (dsDNA)
DNA 1: CAAGTAGAAG
DNA 2: CTTCTACTTG
For B3, the activity (ZFP 60 QSNR3-QSSR1-QSNV2) was 1.5 fold repression.

B4: target 55 (dsDNA)
DNA 1: GAAGGAAAAT
DNA 2: ATTTTCCTTC
Binder B4 has an activity (ZFP 55 QSNV2-QSHR2-QSNR3) of 1.6 fold repression.

B5: target 42 (dsDNA)
DNA 1: AGAGGAAGGT
DNA 2: ACCTTCCTCT
In the case of B5, the activity (ZFP 42 RDHT-QSHR2-QSHT) is reported as 1.7 fold repression.

B6: target 62 (dsDNA)
DNA 1: GCTGCAGCGT
DNA 2: ACGCTGCAGC
B6 showed an activity (ZFP 62 RDER1-QSSR1-VSTR) of 1.5 fold repression.

B7: target 47 (dsDNA)
DNA 1: GCTGGAGGGG
DNA 2: CCCCTCCAGC
B7 gave an activity (ZFP 47 RSHR-QSHR2-VSTR) of 1.7 fold repression.

B8: target 50 (dsDNA)
DNA 1: AAAGTGGGGA
DNA 2: TCCCCACTTT
B8 showed an activity (ZFP 50 RSHR-RDER1-QSNV2) of 1.6 fold repression.

B9: target 49 (dsDNA)
DNA 1: AGAAAAGGG
DNA 2: CCCTTTTCT
In the case of B9, the activity (ZFP 49 RSHR-QSNV2-QSHT) is reported as 1.6 fold repression.

B10: target 51 (dsDNA)
DNA 1: AGAAAAAATA
DNA 2: TATTTTTTCT
B10 showed an activity (ZFP 51 VSNV-QSNV2-QSHT) of 1.6 fold repression.

B11: target 64 (dsDNA)
DNA 1: GATGGGGTTT
DNA 2: AAACCCCATC
With B11 the activity (ZFP 64 VSSR-RSHR-ISNR) was 1.5 fold repression.

B12: target 35 (dsDNA)
DNA 1: GGGTGAGTG
DNA 2: CACTCACCC
Binder B12 has an activity (ZFP 35 VSSR-QSHT-RSHR) of 1.9 fold repression.

B13: target 52 (dsDNA)
DNA 1: GAGTGAGGA
DNA 2: TCCTCACTC
B13 showed an activity (ZFP 52 QSHR2-QSHT-RSNR) of 1.6 fold repression.

B14: target 57 (dsDNA)
DNA 1: TGAGACGGAG
DNA 2: CTCCGTCTCA
B14 showed an activity (ZFP 57 QSHR2-CSNR1-QSHT) of 1.5 fold repression.

B15: target 39 (dsDNA)
DNA 1: GGAGAGGCTC
DNA 2: GAGCCTCTCC
B15 showed an activity (ZFP 39 VSTR-RSNR-QSHR2) of 1.8 fold repression.

B16: target 45 (dsDNA)
DNA 1: GTTCAAGAC
DNA 2: GTCTTGAAC
In the case of B16, the activity (ZFP 45 HSNK-QSNV2-VSSR) is reported as 1.7 fold repression.

B17: target 65 (dsDNA)
DNA 1: GGGGCGGAG
DNA 2: CTCCGCCCC
B17 showed an activity (ZFP 65 RSNR-RDER1-RSHR) of 1.5 fold repression.

B18: target 36 (dsDNA)
DNA 1: GAGGTTGAGG
DNA 2: CCTCAACCTC
Binder B18 has an activity (ZFP 36 RSNR-VSSR-RSNR) of 1.8 fold repression.

B19: target 58 (dsDNA)
DNA 1: GCTGGAAATT
DNA 2: AATTTCCAGC
Work on B19 yielded an activity (ZFP 58 VSNV-QSHR2-VSTR) of 1.5 fold repression.

B20: target 41 (dsDNA)
DNA 1: GGGGAGGAAA
DNA 2: TTTCCTCCCC
In the case of B20, the activity (ZFP 41 QSNR3-RSNR-RSHR) is reported as 1.7 fold repression.

B21: target 43 (dsDNA)
DNA 1: GGAGAAGTAG
DNA 2: CTACTTCTCC
With B21 the activity (ZFP 43 QSSR1-QSNR3-QSHR2) was 1.7 fold repression.

B22: target 56 (dsDNA)
DNA 1: GGGGCTGAGG
DNA 2: CCTCAGCCCC
In the case of B22, the activity (ZFP 56 RSNR-VSTR-RSHR) is reported as 1.5 fold repression.

B23: target 53 (dsDNA)
DNA 1: GACAGGGGAG
DNA 2: CTCCCCTGTC
For B23, the activity (ZFP 53 QSHR2-RDHT-CSNR1) was 1.6 fold repression.
